Test results: publication PMC6445578

How the values were obtained:
[1] = molecular target: hERG ΔPAS-citrine channel (hERG core channel), S620T (human) (UniProt Q12809); assay: FRET or BRET
[2] = molecular target: hERG F860A core channel (hERG ΔPAS F860A-citrine, S620T) (human) (UniProt Q12809); assay: FRET or BRET

**Q.** How did the Ratio A − Ratio A0 (proportional to FRET efficiency) [1] turn out when “hERG PAS domain fused to cyan fluorescent protein (hERG PAS-CFP) (from UniProt Q12809 1-135) (domain or fragment)” was run?
**A.** 0.2

**Q.** What about the Ratio A – Ratio A0 (proportional to FRET efficiency) [2] of the same substance?
**A.** 0.09
